This is an account of results in patent publication US9926214B2, “Use of peracetic acid/hydrogen peroxide and peroxide-reducing agents for treatment of drilling fluids, frac fluids, flowback water and disposal water” (Ecolab USA Inc., priority 2012, dated 2018).

The nature of data set [1]: Example 21 hydrogen peroxide decomposition with sequenced POAA and hypochlorite in deionized and contaminated water. It is filed as physicochemical. As to conditions: water not containing any biological contamination. The source says: Additional evaluation of the process of using peroxide-reducing agents in sequence was further analyzed as shown in Table 32 using additional water samples, including deionized water (i.e. not contaminated), and the Control (as set forth above as a contaminated water source).
The peracetic acid and sodium hypochlorite are indistinguishable in titration, and are therefore presumed to consist of ½ of the titrateable material; however the focus of the evaluation was solely on the hydrogen peroxide decomposition.

Data set [2] is classed as physicochemical. How it is done:
Field of use applications were analyzed to determine the amount of a peroxide-reducing enzyme necessary to obtain desired concentrations of both peracid and hydrogen peroxide in a treated water source. EnviroSan (POAA) peracid composition was added to water to reach the targeted POAA concentrations set forth in Table 18, and the concentration of both POAA and H2O2 were confirmed by iodometric titration. Then catalase (ES2000) was added to the solution, and the sample was stored under ambient conditions. The concentration of POAA and H2O2 were monitored by the iodometric conditions.

Where [3] appears, read: Catalase 0.5 ppm, Time 1 hr, run starting at 14.6 ppm POAA.
Where [4] appears, read: Catalase 1.0 ppm, Time 1 hr, run starting at 30.1 ppm POAA.

Read-outs that look alike come from different tables or passages of the source.

`OCl` [hypochlorite, sodium hypochlorite]: in data set [1], the “impact on the decomposition of hydrogen peroxide” value is listed as “efficacious impact on the decomposition of hydrogen peroxide”.
Turning to catalase, in data set [2], the “selectivity of H2O2 decomposition versus POAA stability” value was “selectively decomposes the H2O2 without having any negative impact on POAA stability”. Also, the “H2O2(ppm)” value in data set [2] (Catalase 0.5 ppm, Time 0 hr, run starting at 14.6 ppm POAA) stood at 12.0 ppm; in data set [2] (setting [3]), 7.5 ppm; in data set [2] (Catalase 0.5 ppm, Time 2 hr, run starting at 14.6 ppm POAA) it was 6.5 ppm; in data set [2] (Catalase 0.5 ppm, Time 2 hr, run starting at 31.1 ppm POAA) it was 7.8 ppm; in data set [2] (Catalase 0.5 ppm, Time 3.6 hr, run starting at 14.6 ppm POAA), 1.8 ppm; in data set [2] (Catalase 0.5 ppm, Time 3.6 hr, run starting at 31.1 ppm POAA), 3.4 ppm. Also, the “H2O2(ppm)” value in data set [2] (Catalase 1.0 ppm, Time 1 hr, run starting at 14.8 ppm POAA) is 3.7 ppm; in data set [2] (setting [4]) it was 7.6 ppm; in data set [2] (Catalase 1.0 ppm, Time 2 hr, run starting at 14.8 ppm POAA), 1.1 ppm; in data set [2] (Catalase 1.0 ppm, Time 2 hr, run starting at 30.1 ppm POAA) it was 2.3 ppm; in data set [2] (Catalase 1.0 ppm, Time 3.6 hr, run starting at 14.8 ppm POAA) it was 0.4 ppm; in data set [2] (Catalase 1.0 ppm, Time 3.6 hr, run starting at 30.1 ppm POAA), 0.0 ppm. Moreover, the “POAA (ppm)” value came to 15.0 ppm in data set [2] (setting [3]); 32.0 ppm in data set [2] (Catalase 0.5 ppm, Time 1 hr, run starting at 31.1 ppm POAA); 31.0 ppm in data set [2] (setting [4]). For the same compound, the “lowest catalase concentration treating pond water with POAA and H2O2” value in data set [2] (within 4 hours, ambient conditions) is 0.5 ppm.
